Key:
[1] = target: PAN domain of SpG-type LecRLK-2 (amino acids 322-400), secreted His-Avi-sfGFP fusion (Salix purpurea); test: SEC
[2] = target: PAN domain of SpG-type LecRLK-2R (amino acids 322-400), secreted His-Avi-sfGFP fusion (Salix purpurea); test: SEC

Row | Substance | percent in higher-order complex [1] [%] | percent monomeric [1] [%] | percent monomeric [2] [%]
1 | PAN domain of SpG-type LecRLK-2 (amino acids 322-400), secreted His-Avi-sfGFP fusion (domain or fragment) | 48.2 | 51.8 | 
2 | PAN domain of SpG-type LecRLK-2R (amino acids 322-400), secreted His-Avi-sfGFP fusion (domain or fragment) |  |  | 26.4

— doi:10.1101/2023.06.15.545202
